Here are results for 6 molecules from patent US20220073617A1 (Five Prime, published 2022).

The target in assay [1] is T1, cyno VISTA-ECD (His tag) (cynomolgus macaque, UniProt Q9H7M9 33-193 (human entry)).
T1 construct: also called cyVISTA-His
T1 chain: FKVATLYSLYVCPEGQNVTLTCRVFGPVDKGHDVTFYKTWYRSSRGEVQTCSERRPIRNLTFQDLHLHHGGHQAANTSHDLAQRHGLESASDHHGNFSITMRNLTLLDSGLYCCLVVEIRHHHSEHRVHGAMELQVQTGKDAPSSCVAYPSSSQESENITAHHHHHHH
Description: SPR 37C pH 7.4.

Assay [2] has as its target T2, monovalent hVISTA-ECD (amino acids 32-193 of SEQ ID NO: 1 with a 7xHis tail) (human, UniProt Q9H7M9 33-193).
T2 construct: analyte of the SPR assays; also called huVISTA-His; hVISTA-His
Kind of assay: SPR 37C pH 7.4.

The target in assay [3] is T3, avidin (ThermoFisher Scientific catalog #21128) (UniProt P02701 25-152). Kind of assay: SPR 25C pH 6.0 and 7.4. On the procedure:
(§1) The binding specificity of the '029, '761 and '767 clones to VISTA and to other high pI proteins was evaluated by SPR at neutral and acidic pH using a Biacore® T100 instrument (GE Healthcare). Protein A (ThermoFisher Scientific catalog #21181) was diluted to 20 ug/ml in 10 mM sodium acetate pH 4.5 and immobilized onto flow cells of a CM3 biosensor following the manufacturer's amine coupling protocol (GE Healthcare), targeting 800 RU immobilization density of Protein A per flow cell. SPR experiments were conducted at 25° C. using PBST (137 mM sodium chloride, 2.7 mM potassium chloride, 10 mM phosphate buffer, 0.05% Tween 20) running buffer at pH 7.4 and 6.0. Antibodies (formatted as IgG1.3 antibodies) were diluted to 50 nM in PBST pH 7.4, and were captured across active biosensor flow cells at 5 ul/min for 60 seconds. […] Two 15 second injections of 10 mM glycine pH 1.5 were used to regenerate the Protein A capture surface between assay cycles. Reference flow cell and 0 nM blank-subtracted sensorgrams were inspected using Biacore® T200 Evaluation Software v.2.0. The results are shown in […]

Assay [4] concerns the target BSA (Calbiochem catalog #126593) (UniProt P02769 25-607). Description: SPR 25C pH 6.0 and 7.4. On the procedure: as §1
The target of assay [5] is T1, cyno VISTA-ECD (His tag). Kind of assay: SPR 37C.
Assay [6] addresses T2, monovalent hVISTA-ECD (amino acids …). Description: SPR 37C.
Assay [7] has the same target. Description: SPR 37C. On the procedure:
For this assay, '029, '761 and '767 were reformatted as hIgG1f isotype and were expressed as both standard hIgG1f and in hIgG1f afucosylated formats to compare against the hIgG1.3f Fc. An SPR kinetics assay was conducted to measure koff and KD binding affinity measurements for VISTA Abs at acidic and physiological pH using a Biacore® T100 instrument (GE Healthcare). Protein A (ThermoFisher Scientific catalog #21181) was diluted to 20 μg/ml in 10 mM sodium acetate pH 4.5 and immobilized onto flow cells of a CM5 biosensor following the manufacturer's amine coupling protocol (GE Healthcare), targeting 2,000 RU immobilization density of Protein A per flow cell. […] Antibodies were diluted to 25 nM in PBST pH 7.4, and were captured across active biosensor flow cells at 5 ul/min for 45 seconds. […] Two 15 second injections of 10 mM glycine pH 1.5 were used to regenerate the Protein A capture surface between assay cycles. Rate constants ka (kₒₙ) and kd (koff) were derived from reference flow cell and 0 nM blank-subtracted sensorgrams, and were fit to a 1:1 binding model in Biacore® T200 Evaluation Software v.2.0. The affinity constant, KD was calculated as the ratio of rate constants koff/kₒₙ for each VISTA antibody. Ratios of koff and KD at pH 7.4/pH 6.0 were calculated to compare off-rate and affinity improvement at acidic pH relative to physiological pH.
This is another data set of the same source.

Assay [8] has as its target T1, cyno VISTA-ECD (His tag). Kind of assay: SPR 37C pH 6.0.
Assay [9] deals with T2, monovalent hVISTA-ECD (amino acids …). Kind of assay: SPR 37C pH 6.0.
For assay [10], the target named is T3, avidin (ThermoFisher Scientific catalog …). Kind of assay: SPR pH 6.0 and 7.4.
Assay [11] has as its target T2, monovalent hVISTA-ECD (amino acids …). Description: SPR (FIG. 19C).
The target is the same in assay [12]. Description: SPR 37C, 100 nM hVISTA-ECD, pH 7.4, 6.7, 6.0.
The target of assay [13] is T4, human VISTA on cells (human monocytes, AML3 cells, 293T/HEK293 cells expressing full-length human VISTA) (human, UniProt Q9H7M9 33-311).
T4 sequence: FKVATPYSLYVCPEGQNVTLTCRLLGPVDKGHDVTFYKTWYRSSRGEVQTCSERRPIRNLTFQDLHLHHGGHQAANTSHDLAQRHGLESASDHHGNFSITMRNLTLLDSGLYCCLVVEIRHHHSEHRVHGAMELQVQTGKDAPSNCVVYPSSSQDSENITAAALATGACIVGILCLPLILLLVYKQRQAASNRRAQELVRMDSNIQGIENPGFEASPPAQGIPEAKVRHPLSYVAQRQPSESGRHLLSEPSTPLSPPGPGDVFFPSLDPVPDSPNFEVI
Kind of assay: cell-based or functional assay.

A value given as a limit tells only on which side of the number the result lay.

T3 sequence (P02701 25-152 limits assumed): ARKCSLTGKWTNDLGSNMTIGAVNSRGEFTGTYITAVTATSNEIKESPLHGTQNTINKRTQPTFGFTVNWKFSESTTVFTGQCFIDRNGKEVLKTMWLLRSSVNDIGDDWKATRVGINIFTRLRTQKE
Chain of BSA (Calbiochem catalog #126593) (P02769 25-607 limits assumed): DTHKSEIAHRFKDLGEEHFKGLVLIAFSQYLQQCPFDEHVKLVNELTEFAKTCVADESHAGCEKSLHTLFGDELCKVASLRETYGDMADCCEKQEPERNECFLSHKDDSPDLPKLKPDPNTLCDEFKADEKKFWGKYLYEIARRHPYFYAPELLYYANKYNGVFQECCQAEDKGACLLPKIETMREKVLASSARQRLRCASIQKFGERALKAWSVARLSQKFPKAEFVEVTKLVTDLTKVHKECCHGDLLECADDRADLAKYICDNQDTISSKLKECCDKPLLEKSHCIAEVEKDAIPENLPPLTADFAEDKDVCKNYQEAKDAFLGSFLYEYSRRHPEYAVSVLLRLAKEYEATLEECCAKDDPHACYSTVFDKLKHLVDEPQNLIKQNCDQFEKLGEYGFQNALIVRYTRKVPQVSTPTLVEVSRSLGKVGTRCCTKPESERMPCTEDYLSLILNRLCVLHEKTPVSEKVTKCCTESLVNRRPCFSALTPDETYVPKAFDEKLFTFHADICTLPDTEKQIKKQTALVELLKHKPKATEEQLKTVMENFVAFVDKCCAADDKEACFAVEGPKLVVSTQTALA

B1: P1-068761.IgG1.3 (antibody)
heavy: EVQLVESGGGLVQPGKSLRLSCAASGFTLEDEAMHWVRQAPGKGLEWVSGINWNSEEIGYADSVKGRFTISRDNAKNSLYLQMNSLRTEDTALYYCAKVPGYSHGWIDAEDVWGQGTMVTVSSASTKGPSVFPLAPSSKSTSGGTAALGCLVKDYFPEPVTVSWNSGALTSGVHTFPAVLQSSGLYSLSSVVTVPSSSLGTQTYICNVNHKPSNTKVDKRVEPKSCDKTHTCPPCPAPEAEGAPSVFLFPPKPKDTLMISRTPEVTCVVVDVSHEDPEVKFNWYVDGVEVHNAKTKPREEQYNSTYRVVSVLTVLHQDWLNGKEYKCKVSNKALPAPIEKTISKAKGQPREPQVYTLPPSREEMTKNQVSLTCLVKGFYPSDIAVEWESNGQPENNYKTTPPVLDSDGSFFLYSKLTVDKSRWQQGNVFSCSVMHEALHNHYTQKSLSLSPG
light: not shown
notes: also called P1-068761 hIgG1.3f
Consider B1, for which, in the assay with cyno VISTA-ECD (His tag) [1], binding was characterised by a dissociation constant (Kd) of 5500 nM; the off-rate (koff) (commonly a measure of how fast the partners let go of each other) came out at 0.036 s⁻¹; the kon (as a rule, the rate constant with which the complex forms) is 6500 M⁻¹ s⁻¹. Moreover, in assay [2], the affinity, expressed as Kd, was 8700 nM; the off-rate (koff) is 0.037 s⁻¹; the on-rate (kon) was 4300 M⁻¹ s⁻¹. The binding result in assay [3] is reported as “no binding (tested: <=10 RU, 100-10 nM)”. In assay [4], the binding result was “no binding (tested: <=10 RU, 100-10 nM)”. In the assay with cyno VISTA-ECD (His tag) [5], the “KD ratio (7.4/6)” value came out at 696 and the “kd ratio (7.4/6)” value amounted to 21.2. In [6], the “KD ratio (7.4/6)” value was determined as 2120 and the “kd ratio (7.4/6)” value was 26.4. In addition, in assay [7], the “fold faster koff at pH 6.9 compared to pH 6.0” value was not below 10 fold, the “fold lower affinity at pH 6.45 compared to pH 6.0” value was not below 10 fold, the “fold lower affinity at pH 6.9 compared to pH 6.0” value is not below 100 fold and the “fold lower affinity at pH 7.4 compared to pH 6.0” value was not below 1000 fold. For the same molecule, in assay [7], the “fold weaker KD at pH 6.9 compared to pH 6.0” value was not below 100 fold, the “selectivity for pH 6 over pH 7.4 in KD” value is more than 2000 fold and the “selectivity for pH 6 over pH 7.4 in koff” value was more than 10 fold. In addition, in the assay with cyno VISTA-ECD (His tag) [8], the Kd (in general, the concentration at which binding is half-saturated) turned out to be 7.9 nM; the koff is 0.0017 s⁻¹; the on-rate constant (kon) was 210000 M⁻¹ s⁻¹. In assay [9], this molecule returned an equilibrium dissociation constant (Kd) of 4.1 nM and an on-rate constant (kon) of 350000 M⁻¹ s⁻¹.

B2: P1-068767.IgG1.3 (antibody, V domains shown)
VH: EVQLVESGGGLVQPGKSLRLSCAASGFTLEDYAMHWVRQAPGKGLEWVSGIDWNSENIGYADSVKGRFTISRDNAKNSLYLQMNSLRTEDTALYYCAKVPGYSGGWIDAEDDWGQGTMVTVSS
VL: not shown
notes: also called P1-068767 hIgG1.3f; VISTA.18
As to B2, the binding result is listed as “no binding (tested: <=10 RU, 100-10 nM)” in [3] and “no binding (tested: <=10 RU, 100-10 nM)” in [4].

B3: VISTA.4.IgG1.3 (antibody, V domains shown)
VH: QVQLVESGGGLVKPGGSLRLSCAASGFTFSDYYMSWIRQAPGKGLEWVSYISNSGSPIYYADSVKGRFTISRDNAKNSLYLQMNSLRAEDTAVYYCARDLPGWYFDLWGRGTLVTVSS
VL: EIVLTQSPATLSLSPGERATLSCRASQSVSSYLAWYQQKPGQAPRLLIYDASNRATGIPARFSASGSGTDFTLTISSLEPEDFAVYYCQQRNNWPRTFGQGTKVEIKR
notes: also called 41F11
As for B3, in assay [10], the binding result is recorded as “no binding”.

B4: P1-072315-1 (41F11_VH_T28P/Y50W/S55E/L96E/Y100E VK_A64G) (antibody, V domains shown)
VH: QVQLVESGGGLVKPGGSLRLSCAASGFPFSDYYMSWIRQAPGKGLEWVSWISNSGEPIYYADSVKGRFTISRDNAKNSLYLQMNSLRAEDTAVYYCARDEPGWEFDLWGRGTLVTVSS
VL: EIVLTQSPATLSLSPGERATLSCRASQSVSSYLAWYQQKPGQAPRLLIYDASNRATGIPARFSGSGSGTDFTLTISSLEPEDFAVYYCQQRNNWPRTFGQGTKVEIK
On to B4, for which the binding result in [10] is “no binding”.

B5: P1-070976 (41F11_VH_T28P/Y50W/S55E/D95H/L96E/P97E/Y100E; VK_A64G), IgG1.3 (antibody, V domains shown)
VH: QVQLVESGGGLVKPGGSLRLSCAASGFPFSDYYMSWIRQAPGKGLEWVSWISNSGEPIYYADSVKGRFTISRDNAKNSLYLQMNSLRAEDTAVYYCARHEEGWEFDLWGRGTLVTVSS
VL: EIVLTQSPATLSLSPGERATLSCRASQSVSSYLAWYQQKPGQAPRLLIYDASNRATGIPARFSGSGSGTDFTLTISSLEPEDFAVYYCQQRNNWPRTFGQGTKVEIKR
notes: also called acidic pH selective VISTA.4 progeny
On to B5, for which the “fold higher affinity at pH 6.0 than at pH 7.4” value in assay [11] stood at 200 fold. Further, in assay [10], the binding result is on record as “no binding”.

B6: VISTA.5 (VISTA antibody 1, non-blocking antibody) (antibody, V domains shown)
VH: AVQLQESGPGLVRPSQSLSLTCTVTDYSITSDYAWNWIRQFPGSKLEWLGFIGYSGNTNYNPSLESRISITRHTSKNQFFLHLNSMTTEDTATYYCARSLYGGSHWYFDVWGAGTTVTVSS
VL: DIVLTQSPASLAVSLGQRATISCRGSESVEYYGTILMQWYQQKPGQPPKLLIYGASNVESGVPARFSGSGSGTDFSLNIHPVEEDDIAMYFCQQSRKVPWTFGGGTKLEIK
notes: also called VISTA mAb 1; mAb 1
As for B6, in [12], the binding result is “binds”. Also, in assay [13], the “EC50, AML3 viability (Cell Titer Glo), endolysosome-dependent antibody drug conjugate killing assay” value stood at 0.485 µg/mL.
